These are literature values, as cited in patent publication US7514409B2, “VLA-4 antagonists” (Merck & Co., Inc., priority 2004, dated 2009).

This data set has as its target T1, VLA-4 (Homo sapiens, UniProt P13612).
T1 construct: host or cells: circulating VLA-4-bearing leukocytes of trial subjects (in vivo)
To be noted: early clinical trials.

Regarding “natalizumab: humanized monoclonal antibody against α4”, the “lymphocytosis (a surrogate marker for blockade of VLA-4 function)” value is reported as “observed” and the receptor occupancy was more than 80%.
